Measurements from patent publication US11078246B2, “Peptides binding to Bfl-1” (Dana-Farber Cancer Institute, Inc., priority 2015, dated 2021).

Tests used:
Assay type in all cases: binding
tBID/HA-BFL-1ΔC C4S/C19S = target: T1, tBID/HA-BFL-1ΔC C4S/C19S (Homo sapiens, UniProt Q16548, C19S/C4S); assay: Competition with tBID in 293T lysates (HA immunoprecipitation); conditions: 5 μM biotinylated peptide, 0.25 μM tBID, 6 h
T1 construct: cDNA encoding BFL-1ΔC (aa 1-153) was cloned into the pET19b expression vector; expressed in transfected cells; host or cells: 293T
T1 sequence (Q16548 1-153 C4S/C19S): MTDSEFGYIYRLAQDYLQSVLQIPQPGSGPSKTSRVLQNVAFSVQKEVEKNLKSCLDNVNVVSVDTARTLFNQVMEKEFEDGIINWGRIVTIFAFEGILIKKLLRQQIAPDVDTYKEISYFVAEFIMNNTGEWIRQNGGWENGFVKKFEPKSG
Description: Protein concentration of the soluble fraction was measured using a BCA kit according to manufacturer's instructions (Thermo Scientific). […] After 24 h, cells were trypsinized, washed with PBS, lysed in 1% CHAPS buffer, and the supernatant collected for protein concentration determination by BCA kit. […] Cells were harvested and lysed as above, and incubated overnight with anti-HA agarose beads (Pierce). The beads were washed 3 times with lysis buffer, eluted by boiling in LDS buffer, and subjected to western analysis with HA and biotin antibodies. […] Biotin capture was accomplished by incubating the mixture with high-capacity SA agarose (Thermo Scientific) for 2 h at 4° C., followed by centrifugation and washing the pelleted beads with 3×1 mL lysis buffer.

tBID/FLAG-MCL-1 = target: T2, tBID/FLAG-MCL-1 (Homo sapiens, UniProt Q07820); assay: Competition with tBID in 293T lysates (FLAG immunoprecipitation); conditions: 5 μM biotinylated peptide, non-covalent
T2 construct: expressed in transfected cells; host or cells: 293T
T2 sequence (Q07820 whole entry): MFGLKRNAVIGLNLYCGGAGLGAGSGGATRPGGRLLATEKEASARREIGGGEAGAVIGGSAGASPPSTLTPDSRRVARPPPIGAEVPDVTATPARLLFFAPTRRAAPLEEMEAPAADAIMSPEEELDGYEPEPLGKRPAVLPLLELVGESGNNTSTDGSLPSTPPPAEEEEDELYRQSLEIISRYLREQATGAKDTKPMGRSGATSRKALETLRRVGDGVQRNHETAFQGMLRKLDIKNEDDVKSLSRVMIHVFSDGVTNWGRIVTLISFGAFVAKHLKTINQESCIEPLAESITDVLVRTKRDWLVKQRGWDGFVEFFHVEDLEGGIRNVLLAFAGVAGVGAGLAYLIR
Description: (§1) 293T cells were maintained in DMEM containing 10% FBS and penicillin/streptomycin, and transfections performed with 2 μg pCMV plasmid containing HA-BFL-1ΔC C4S/C19S using X-tremeGENE 9 (Roche). For lysate experiments, cells were trypsinized 24 hours post-transfection, washed with PBS, and lysed by incubation with 1% CHAPS lysis buffer (150 mM NaCl, 50 mM Tris pH 7.4, 100 mM DTT). Protein concentration of the soluble fraction was measured using a BCA kit according to manufacturer's instructions (Thermo Scientific). […] Samples were then boiled in LDS buffer and subjected to western analysis using 1:1000 dilutions of HA (Sigma-Aldrich. #12CA5) and biotin (Abcam, #53494) antibodies. To evaluate the capacity of biotinylated SAHBs to compete with tBID for interactions with BFL-1 and MCL-1, 293T cells were transfected with either HA-BFL-1ΔC C4S/C19S or FLAG-MCL-1 in the p3XFLAG-CMV-10 vector (Sigma) as above. After 24 h, cells were trypsinized, washed with PBS, lysed in 1% CHAPS buffer, and the supernatant collected for protein concentration determination by BCA kit. […] The mixtures were then subjected to HA or FLAG (Sigma-Aldrich, F7425) immunoprecipitation, followed by western analysis using 1:1000 dilutions of HA, FLAG, biotin, and BID (Santa Cruz sc-11423) antibodies. […] Cells were harvested and lysed as above, and incubated overnight with anti-HA agarose beads (Pierce). […]

MCL-1 = target: T3, MCL-1 (Homo sapiens, UniProt Q07820); assay: SA pull-down from A375P lysates, MCL-1 western; conditions: A375P lysate, biotinylated peptides
T3 construct: we incubated A375P lysates with the corresponding biotinylated BIM SAHBs; endogenous in cells; host or cells: A375P melanoma cell lysate
Description: as §1

BIM SAHBA: stapled BIM BH3 peptide (aa 147-166) lacking the acrylamide-based warhead
competition with tBID for HA-BFL-1 binding (tBID/HA-BFL-1ΔC C4S/C19S): incapable of competing with tBID | competition with tBID for FLAG-MCL-1 (tBID/FLAG-MCL-1): equally effective | binding to MCL-1 (MCL-1): equivalent binding
